The text below walks through data of paper PMC2894445.

Assay [1] deals with Nup188 (Xenopus laevis (endogenous in Xenopus egg cytosol)). Kind of assay: co-IP.
Assay [2] concerns the target Nup205 (Xenopus laevis (endogenous in Xenopus egg cytosol)). Briefly: co-IP.

B1: Nup93 (natural protein)
chain: MDGEGFGELLQQAEQLAAETEGVTELPHVERNLQEIQQAGERLRSKTMTRTSQESANVKASVLLGSRGLDISHISQRLESLSAATTFEPLEPVKDTDIQGFLKNEKDNALLSAIEESRKRTFVMAEEYHRESMLVEWEQVKQRVLHTLLASGEDALDFTQESETSYISESGAPGRSSLDNVEMAYARQMYMYNEKVVSGHLQPSLVDLCTEAAERLDDKNVSDLWVMVKQMTDVPLIPASDTLKSRCSGQMQMAFVRQALNYLEQSYKNYTLISVFANLQQAQLGGVPGTYNLVRSFLNIRLPTPIPGLQDGEIEGYPVWALIYYCMRCGDLMAAQQVVNRAQHQLGDFKNCFQEYIHNKDRRLSPTTENKLRLHYRRAVRASTDPYKRAVYCIIGRCDVSDNHSEVADKTEDYLWLKLSQVCFEDEANSSPQDRLTLPQFQKQLFEDYGESHFAVNQQPYLYFQVLFLTAQFEAAIAFLFRLERTRCHAVHVALALFELKLLLKSTGQSAQLLSQEPGEPQGVRRLNFIRLLMLYTRKFEPTDPREALQYFYFLRNEKDNQGESMFLRCVSELVIESREFDMLLGKLEKDGSRKPGAIDKFTRDTKTIINKVASVAENKGLFEEAAKLYDLAKNPDKVLELTNKLLSPVVSQISAPQSNRERLKNMALAIAERYKSQGVSAEKSINSTFYLLLDLITFFDEYHAGHIDLSFDVIERLKLVPLSQDSVEERVAAFRNFSDEIRHNLSEILLATMNILFTQYKRLKGSGPTTLGRPQRVQEDKDSVLRSQARALITFAGMIPYRMSGDTNARLVQMEVLMN
With B1, the percent of Nup93 co-immunoprecipitated in assay [1] and in assay [2] was 45% throughout.
